Here are results for five molecules from PMC5515355, “Frizzled 7 and PIP2 binding by syntenin PDZ2 domain supports Frizzled 7 trafficking and signalling” (Nature Communications, 2016).

Substitutions are numbered along the chain they refer to. Ends that are not written are not given here. carboxifluorescein = carboxyfluorescein

In test [1] the target is syntenin PDZ1–PDZ2 tandem (amino acids 107–275), wild type (human) (UniProt O00560). In words: ITC; VP-ITC; Frizzled 7 peptide (1.0 mM) injected (32 x 8 μl) into PDZ1–PDZ2 tandem (30–60 μM); 10 mM Mes pH 7.0, 5 mM β-mercaptoethanol; binary sequential binding model. A general note: In ITC the heat of successive injections is recorded.
Test [2] deals with T1, syntenin PDZ1–PDZ2 tandem (amino acids 107–275), wild type (human, UniProt O00560 107-275).
T1 construct: syntenin, PDZ1–PDZ2 tandem, amino acids 107–275; also called PDZ tandem of syntenin; PDZ1–PDZ2 tandem wild-type; source: ER2566 cells (pETM-11 vector), purified; not shown: His6, N-terminal, kept
T1 sequence (looked up): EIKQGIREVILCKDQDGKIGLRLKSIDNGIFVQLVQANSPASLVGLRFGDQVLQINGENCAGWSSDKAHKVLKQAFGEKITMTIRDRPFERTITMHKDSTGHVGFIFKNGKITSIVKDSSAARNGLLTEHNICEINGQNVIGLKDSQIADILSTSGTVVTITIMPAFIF
The experiment in a line: SPR; as a3, but the syntenin protein pre-incubated with 0.5 mM Ins(1,4,5)P3 (IP3, PIP2 head group) before perfusion; apparent KD. To be noted: both partners purified. For orientation: In SPR one partner is held on a chip, and binding of the other changes the refractive index at the surface.

Test [3] has as its target T2, syntenin PDZ2 domain (residues 196–275), wild type (human, UniProt O00560 196-275).
T2 construct: syntenin, PDZ2 domain, amino acids 196–275; also called PDZ2 wild type; source: ER2566 cells (pETM-11 vector), purified recombinant; not shown: His6, N-terminal, kept
T2 sequence (looked up): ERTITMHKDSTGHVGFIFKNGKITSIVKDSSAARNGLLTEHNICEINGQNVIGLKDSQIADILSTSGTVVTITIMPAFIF
Described as above. As to conditions: both partners purified.

The target of test [4] is T3, syntenin PDZ2 domain (196–275) N215D (human, UniProt O00560 196-275, N215D).
T3 construct: syntenin, PDZ2 domain, amino acids 196–275, N215D; also called PDZ2 single mutant N215D; source: ER2566 cells (pETM-11 vector), purified; not shown: His6, N-terminal, kept
T3 sequence (looked up): T2 sequence (looked up) with N20D
The description is as above. To be noted: both partners purified.

In test [5] the target is T4, syntenin PDZ2 domain (196–275) K214A (human, UniProt O00560 196-275, K214A).
T4 construct: syntenin, PDZ2 domain, amino acids 196–275, K214A; also called PDZ2 single mutant K214A; source: ER2566 cells (pETM-11 vector), purified; not shown: His6, N-terminal, kept
T4 sequence (looked up): T2 sequence (looked up) with K19A
The test is described as above. As to conditions: both partners purified.

Test [6] addresses T5, syntenin PDZ2 domain (196–275) K250A (human, UniProt O00560 196-275, K250A).
T5 construct: syntenin, PDZ2 domain, amino acids 196–275, K250A; also called PDZ2 single mutant K250A; source: ER2566 cells (pETM-11 vector), purified; not shown: His6, N-terminal, kept
T5 sequence (looked up): T2 sequence (looked up) with K55A
In words: SPR; BIAcore T200, 25 °C; biotinylated Frizzled 7 19mer peptides (100 RU) immobilised on a streptavidin chip, His-tagged syntenin proteins as analytes; 10 mM HEPES pH 7.4, 150 mM NaCl, 0.005% Tween 20; equilibrium titration, apparent KD; without IP3. To be noted: both partners purified.

In test [7] the target is T6, syntenin PDZ1–PDZ2 tandem (107–275) mutant K214A/K250A (human, UniProt O00560 107-275, K214A | K250A).
T6 construct: syntenin, PDZ1–PDZ2 tandem, amino acids 107–275, K214A and K250A; PDB 4Z33 holds the wild-type parent of the same limits; also called PDZ1–PDZ2 tandem mutant K214A/K250A; K214A/K250A mutant tandem; source: ER2566 cells (pETM-11 vector), purified; not shown: His6, N-terminal, kept
T6 sequence (looked up): T1 sequence (looked up) with K108A, K144A
Described as above. As to conditions: both partners purified.

In test [8] the target is T1, syntenin PDZ1–PDZ2 tandem (amino acids …). Described as above. As to conditions: both partners purified.
Test [9] deals with T2, syntenin PDZ2 domain (residues …). The description is as above. As to conditions: both partners purified.
The target in test [10] is T7, syntenin PDZ2 domain (196–275) K214A/K250A (human, UniProt O00560 196-275, K214A | K250A).
T7 construct: syntenin, PDZ2 domain, amino acids 196–275, K214A and K250A; also called PDZ2 double mutant; PDZ2 mutant K214A/K250A; source: ER2566 cells (pETM-11 vector), purified; not shown: His6, N-terminal, kept
T7 sequence (looked up): T2 sequence (looked up) with K19A, K55A
The test is described as above. To be noted: both partners purified.

For test [11], the target named is T1, syntenin PDZ1–PDZ2 tandem (amino acids …). In words: MST; as a7, in the presence of Ins(1,4,5)P3 head group (concentration not stated); fit of Hill's equation. To be noted: both partners purified.
For test [12], the target named is T2, syntenin PDZ2 domain (residues …). In words: SPR; competition: PDZ2 wild type (30 μM) incubated with 0–4 mM 6mer Frizzled 7 peptide (KGETAV), then perfused over the Frizzled 7 peptide immobilised on a BIAcore streptavidin chip; equilibrium responses. To be noted: both partners purified.
Test [13] concerns the target T1, syntenin PDZ1–PDZ2 tandem (amino acids …). In words: crystal structure; PDZ tandem co-crystallised with C4-PIP2 and the Frizzled 7 sixmer, molar ratio protein:lipid:peptide 10:23:23; 2.45 Å. To be noted: both partners purified.

In [1], “8mer C-terminal peptide from Frizzled 7 (from UniProt O75084 567-574)” had a KD of the first site (binary sequential binding model) of 20.5 µM and a KD of the second site (binary sequential binding model) of 4.3 µM.

B1: Frizzled 7 wild-type 19mer, biotinylated C-terminal peptide (SWRRFYHRLSHSSKGETAV) (peptide)
peptide: SWRRFYHRLSHSSKGETAV
modifications: also: biotinylated, position not given here
notes: Frizzled 7, last 19 residues, part of the cytoplasmic domain; K-5 is lysine 569; Immobilised on a streptavidin sensor chip; also called 19 amino acids C-terminal peptide from Frizzled 7; Frizzled 7 19mer; source: synthetic peptide, GenScript
Consider B1, for which the Kd worked out at 2 µM in test [2], 5 µM in [3], 8 µM in test [8] and 32 µM in [9]. In addition, the binding result in test [4], in test [5], in test [6], in [7] and in test [10] was “binds” in each case.

B2: 6mer C-terminal peptide from Frizzled 7, N-terminally labelled with carboxifluorescein (peptide)
peptide: carboxifluorescein-KGETAV
notes: Frizzled 7, C-terminal six residues; also called Frizzled 7 peptide (microscale thermophoresis); source: synthetic peptide (chemically synthesized, JPT, Germany)
With B2, in test [11], the Kd was 1.2 µM.

B3: C-terminal hexapeptide of Frizzled 7 (KGETAV) (peptide)
peptide: KGETAV
notes: Frizzled 7, C-terminal six residues; K-5 is lysine 569; also called Fz7(6mer); 6mer Frizzled 7 peptide
Take B3: the binding result in test [12] and in [13] was “binds” each time.

B4: Frizzled 7 K-5A mutant 19mer, biotinylated (SWRRFYHRLSHSSAGETAV) (peptide)
peptide: SWRRFYHRLSHSSAGETAV
modifications: also: biotinylated, position not given here
notes: Frizzled 7, last 19 residues with the lysine at position -5 (lysine 569) replaced by alanine; Immobilised on a streptavidin sensor chip; also called Frizzled 7 K-5A 19mer; source: synthetic peptide, GenScript
In the case of B4, the binding result in [9] is “binds”.
